Reference: article PMC9616950, “A toxin-deformation dependent inhibition mechanism in the T7SS toxin-antitoxin system of Gram-positive bacteria” (Nature Communications, 2022)

B1: EsaG (natural protein)
chain: MTFEEKLSKIYNEIANEISSMIPVEWEKVYTMAYIDDGGGEVFFNYTKPGSDDLNYYTNIPKEYNISVQVFDDLWMDLYDLFEELRDLFKEEDLEPWTSCEFDFTREGELKVSFDYIDWINSEFGQIGRQNYYKYRKFGILPETEYEINKVKEIEQYIKELEE
notes: also called antitoxin EsaG; full-length EsaG; source: E. coli BL21(DE3), purified (nickel column, ion exchange, Superdex 200); not shown: His6-SUMO, N-terminal, cleaved
B2: His-EsaDc-NFL (His-SUMO-tagged EsaD residues 450-503) (domain or fragment)
chain: SPNYTKVEFGEHYARLRPKKLKANIEYTTPTGHIYRTDHKGRIKEVYVDNLSLK
notes: also called His-tagged NFL; source: E. coli, purified; not shown: His-SUMO, N-terminal, kept
B3: NFL (EsaD residues 450-503) (domain or fragment)
chain: B2 chain
notes: 15N-labelled in one of the HSQC samples; The methods call the fragment NTL; also called EsaDc-NFL; NTL; source: E. coli BL21(DE3), purified (nickel column, ion exchange, Superdex 200); not shown: His6-SUMO, N-terminal, cleaved
B4: EsaDc H528A (EsaD residues 450-614, crystallised with EsaG) (domain or fragment)
chain: SPNYTKVEFGEHYARLRPKKLKANIEYTTPTGHIYRTDHKGRIKEVYVDNLSLKDGDRNSHAQRTVGGEDRLPDDDGGALIARMFGGSKDIDNLVAQSKFINRPFKEKGHWYNLEKEWQEFLNSGKEVKNIKMEVKYSGNSQRPTIFKVEYEINGERNIRRILNK
notes: source: E. coli BL21(DE3), purified (nickel column, ion exchange, Superdex 200); not shown: His6-SUMO, N-terminal, cleaved

Columns and labels:
[1] = target: Avi-tagged EsaG, biotinylated (S. aureus) (UniProt Q2G178); assay: BLI; biotinylated Avi-tagged EsaG immobilised on streptavidin biosensors, EsaDc in solution at different concentrations; 300 mM NaCl, 30 mM NaH2PO4, 27 mM KCl, pH 7.2
[2] = target: B4; assay: crystal structure; EsaDc-EsaG complex, 2.60 Å; hanging drop, 0.1 M Tris pH 8.5, 12% PEG6000, 0.15 M NaCl, 10% ethylene glycol, 0.5% Tacsimate pH 7.0, 1.0% PEG5000MME; conditions: both partners purified
EsaG [3] = target: B1; assay: pull-down; His-SUMO-tagged protein on Ni-NTA beads with untagged protein (0.16 mM : 0.2 mM); 25 mM Tris-HCl pH 8.0, 1 M NaCl, 24 °C, 30 min; Coomassie-stained SDS-PAGE; conditions: both partners purified
EsaG [4] = target: B1; assay: SEC; gel filtration of purified proteins and their mixtures; column and buffer not told for these runs; conditions: both partners purified
[5] = target: the molecule itself; assay: crystal structure; EsaDc-EsaG complex, 2.60 Å; hanging drop, 0.1 M Tris pH 8.5, 12% PEG6000, 0.15 M NaCl, 10% ethylene glycol, 0.5% Tacsimate pH 7.0, 1.0% PEG5000MME

EsaDc N562F (from UniProt Q2G179 450-614) (domain or fragment)
Kd [1]: 860 nM

EsaDc (EsaD residues 450-614, as used in the solution assays) (from UniProt Q2G179 450-614) (domain or fragment)
Kd [1]: 460 nM

EsaDc Y484A (from UniProt Q2G179 450-614) (domain or fragment)
Kd [1]: 1670 nM

B1
binding result [2]: binds

B2
binding result (EsaG [3]): binds

B3
binding result (EsaG [4]): binds

B4
binding result [5]: binds
